Measured values published in a protein production outcome set (Wang et al. 2014).

Assay: label from the status in PepcDB records
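Also: failed if final PepcDB status was selected cloned or expressed and not failed if soluble or beyond.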

Sequence | protein production
MGPSILKMLTHAKSHKEALMAFSRREFLKSAAAASAASAVGMSVPSQLLAQAQEGEKGWRWDKSVCRFCGTGCGIMVATKNDQIVAVKGDPAAPVNRGLNCIKGYFNAKIMYGADRLTDPLLRVNEKGEFDKQGKFKPVSWKKAFDVMEAQFKRAYNELGPTGIGVFGSGQYTIQEGYMAAKLIKGGFRSNNLDPNARHCMASAVAAFMETFGIDEPAGCYDDIELTDTIITWGANMAEMHPILWARVTDKKLSNPDKVKVINLSTYTNRTSDLADIEIIFTPQTDLAIWNYIAREIVYNHPESIDMEFVKNHCIFTTGFTDIGYGMRTDIKHAKYDPKELDIAAKERSKVLSEAEGVTLRYLGMKAGDVMEMKHNATAGNHWEITFEDFKKALEPYTLDFVAKLAKGNSEESLESFKEKLQKLANLYIEKERKVVSFWTMGMNQHTRGTWVNEQSYMVHFLLGKQAKPGSGAFSLTGQPSACGTAREVGTFSHRLPADMVVANPKHRAVSEKIWKLPEGTLNPKMGAHYMNIMRDLEDGKIKFAWIQVNNPWQNTANANHWIKAAREMDNFIVCSDAYPGISAKVADLILPTAMIYEKWGAYGNAERRTQHWRQQVVPVGNAMPDVWQMAEFSKRFKLKEVWGAKKIDDKLTLPDVLEKAKAMGYSPEDTLFEVLFANSEAKSFKAKDPIGEGFENTEVFGDRRNVAGSDGEVFKGYGFFIHKYLWEEYRRFGNGHGHDLADFDTYHKVRGLKWPVVDGKETQWRFNAKYDPYARKAGSGEFAFYGDAMKELPRGDLLSPKTEEKFKLTNKAKIFFRPYMDPPEMPSSEYPLWLCTGRVLEHWHSGTMTMRVPELYRAVPEALCYMHPEDAKKLGVKQNEAVWVESRRGKVKARVDTRGRNRTPLGLVYVPWFDEKVYINKVCLDATCPISKQTDFKKCAVKVYKA | failed
MQNIARNISNRLAGFVYRQMRKAHANANSTVGYSVNANGALLAGCVIDCRSGKSDGRVFFGKDSVLSCRIVLERDVGTVHIGNDSYVGGSQIICADHIEIGNNVLISWGCTIVDHDSHSVDWRNRAEDVRKWREGLLSGGLEKASESKDWAVVEKAPIKIGDKTWLGMNVTVLKGITIGEGAVVAAGSVVTKDVDPWTLVAGNPARVIKELPKS | failed
MKVAVIGSGISGLGSAYVLANQGVKEVVLYEKEESLGGHAKTVRFDGVDLDLGFMVFNRVTYPNMIEFFENLGVEMEVSDMSFAVSLDNGKGCEWGSRNGVSGLFAQKKNVLNPYFWQMIREIVRFKEDVLNYIEKLEGNPDIDRKETLGEFLNTRGYSELFQQAYLVPICGSIWSCPSDGVLSFSAYSVLSFCCNHHLLQIFGRPQWLTVAGRSQTYVAKVRAELERLGCKIRTSCDVKSVSTSENGCVTVTSGDGSEEVFDRCILAMHAPDALRLLGEEVTFDESRVLGAFQYVYSDIYLHHDIDLMPRNKAAWSAWNFLGSTEKKVCVTYWLNILQNLGENSEPFFVTLNPDETPKKALLKWTTGHPVPSVAASIASQELHQIQGKRNIWFCGAYQGYGFHEDGLKAGMAAARGLLGKETALLNNPRHMVPSLTETGARLFVTRFLGQFISTGSVTILEEGGTMFTFGGKDSTCPLKSILKIHSPQFYWKVMTQADLGLADAYINGDFSFVDKESGLLNLIMILIANRDTKSNLTKKRGWWTPMFLTAGLASAKYFLKHVSRQNTLTQARRNISRHYDLSNELFGLFLDDTMTYSSAVFKSDDEDLRTAQMRKISLLIDKARIEKDHEVLEIGCGWGTLAIEVVRRTGCKYTGITLSIEQLKYAEEKVKEAGLQDRITFELRDYRQLSDAHKYDRIISCEMLEAVGHEFMEMFFSRCEAALAEDGLMVLQFISTPEERYNEYRLSSDFIKEYIFPGACVPSLAKVTSAMSSSSRLCIEHVENIGIHYYQTLRLWRKNFLERQKQIMALGFDDKFVRTWEYYFDYCAAGFKTRTLGDYQLVFSRPGNVAAFADSYRGFPSAYCVS | failed
MRLLYVIKKENPMDQMPNCPKCQSEYVYHDSINFVCPDCGNEWDNNEIQESDDDQLIVKDSNGNLLAEGDNVLLIKDLKLKGSSEVLKKGTKFKNIRLVNGDHNVDCGKIMLKSEFLKKALEHHHHHH | not failed
MWKTASDKGLGHLLRDVWSLLNEEERELLDKEIQPFPCKKASTVFSEGDIPNNLFYLYEGKIKILREGVYGRFHISRIVKPGQFFGMRPYFAEETCSSTAIAVENSKVLAIPVEAIEALLKGNTSFCRYFLKALAKELGYAERRTVTLTQKHVRGRLAETLLILKENFGFENDGATLSIYLSREELATLSNMTVSNAIRTLSTFVSERMLALDGKRIKIIDCDRLQKTARSG | not failed
MNSVVDISWAKLAAFSLILLVPLAINARYRLGIAKDASVSVVRMTLQLVLIGVYLEYLFQLNSLIINLLWLAIMLVVGASSIAGKARLPKKPLMLPLLTGLVCGLFPLLIAITAGLVRPTPLYNAQYMIPLAGMLLGNSLSSNIIALQNLFSAFEERKSEYEAAISLGAAPKYASFPFVQEALRKSLAPTLASMTTMGLVTLPGMMTGQVLGGASPLVAIKYQLVIMLAIFVMMSVSVAITLEMTLSFVQTKEGRVTVKVRPVDGMKRGQ | failed
MSASVLSDPTMLISTPEVILVSPVSVTQISGDEPDSVTCDCCGLTEECTQSYIEMVRERYMGKWICGLCSEAVKYEVMRTKRLLTTEEAMARHMNMCNKFKSSSPPPNPTGHLISAMRQILRKSLDSPRMLRSMPNSPSKDDQDHHHDCVSNVLSRSDSCFASLT | failed
LGTLFFSLEYNFERKAFVVNIKEARGLPAMDEQSMTSDPYIKMTILPEKKHKVKTRVLRKTLDPAFDETFTFYGIPYTQIQELALHFTILSFDRFSRDDIIGEVLIPLSGIELSEGKMLMNREII | not failed
MIISNKSPISINNDPWEAYNDILEHNQLTLSNIEFTTTNLCNMRCSHCAVGYTLQTKDPDPLPMDIIYRRLDEIPNLRTLSITGGEPMFSKKSIKNVVKPLLKYAKHRGIYVQMNSNLTLPQDRYLDIAEY | failed
MAKPPTTIEVSPTITLPQQDPSLMGVTVSINGADQRTDQALAKVTRDNQIVTLTASRDLRFLLQEVLEKQMTARGYMVGPNGPVNLQIIVSQLYADVSQGNVRYNIATKADIAIIATAQNGNKMTKNYRASYNVEGAFQASNKNIADAVNSVLTDTIADMSQDTSIHEFIKQNARLEHHHHHH | not failed
MVQRITIAPQGPEFSRFVMGYWRLMDWNMSARQLVSFIEEHLDLGVTTVDHADIYGGYQCEAAFGEALKLAPHLRERMEIVSKCGIATTAREENVIGHYITDRDHIIKSAEQSLINLATDHLDLLLIHRPDPLMDADEVADAFKHLHQSGKVRHFGVSNFTPAQFALLQSRLPFTLATNQVEISPVHQPLLLDGTLDQLQQLRVRPMAWSCLGGGRLFNDDYFQPLRDELAVVAEELNAGSIEQVVNAWVLRLPSQPLPIIGSGKIERVRAAVEAETLKMTRQQWFRIRKAALGYDVP | not failed
VDMDVTTAKLVVGFRGYLTLTQHSLLTYRIALKLFLSMLIGWTSKIYHTLYEDGKIDDSFDVDVEIHHNFQFVLISLDTPEPIAMSNYIRQKLATIKISKEFTNEHLNLLKKEMYGDFIQSLDSIEHLTHQFSLYLSDSDKETYFDIPKIIERLTLKDVVTIGKAFFEKADASDFTVFPK | failed
MVIASIVIYKHSYSDLKQTLDSLLAVSSINKIVLVDNDHSDWASTYHHPKITYLKSDGNFGFGYGHNYAIKRFAAQSDYFLICNPDIVFESSEFEKLLNFIQTREEALFLPKIVYENGENQYGARLLPSPFNLFARRFSPKYAEQLDEDYLLKNFDLSKPIFAPYLHGCFMLFRSKALLELGGFDERFFMYMEDVDLSRRCAEKFGNIYYPLAQVIHLHEQGSYKNKTLLKAHLKSAWQYFCKWGWLYDAQRSSLNGKCLKQRNG | failed
MPFSKNLENLTAPFKRIKNRSLVLALGFLILTFCLLLFLILSDVSRLISGKDFFYVIQSHPKQTLIEDENYFYANKGLYKTNKEAFLRVYKIPESMPIERRENLSKVSKIFLALLFFISSMLFGIFWRLPKRLDTKMSLESAHKNELENAFQRYDALGVRFEDIAGVDEVKEELLEVIDYLKNPKKYQDLGIFLPKGVLLIGPPGVGKTMIAKALASEARVPFFYESGSAFSQIYVGAGAKKVHELFMHAKRHAPSIIFIDEIDALGKARGGHRSDEREATLNQLLTEMDGFLQNDEVVVIGATNQMEVMDEALLRSKRFDRRIFISLPDLLERQSILEKLLENKKHALNYLKIAKICVGFSGAMLATLINESALNALKHQRTEIAESDILEVKDKIAYGKKKPQTLDENQKELVALYQSAKALSAYWLEIEFDKAPILGEFIAFNENKIHSESEIKNYIKVYLSGTIILELLYKERYSLSKQDLQKAKFLNEFMASELLLAPTKESLSVLYEEQLEFLKPQIAACKRLSVLLLEQEYLEHSNLYDLLNG | failed
MRLIEQAIEKIESGQVTEGLTALEEAAKTANHEMKYTVAETYYELGHLDKAQAIIDELLMLYPDEGGLYTFAAEILIDLNKEDEAIEMLNEIKEQDPAFLQAQLLLADLYQLQSLDEVAEQKLLKAYEVAPDEPIISFGLGEFYLERGDYIKSIPHLKRAKHGGLTNDQVNVSLKLAEAYSGSGQFEEALPHYDEGLKQKLDPHGLFGYGYTAYLLGDYVLAIEQFQALKALDPDFYDPIPVFGEGFRRGKSFRGSNGCFKRGDDRGLEHHHHHH | not failed
MVGISFVFDKISNGISSYKSIKGIEQAHKSKKIASDLREYGYKLLDCRKLEAAKDAFEEALRFDPTNPEIQMGLFKSAVFQPILTKNPTYYDAEIALKKIETILKKNPNDRHAYYFMGEIYRDSDPKKASNYYKKVISLDPKSYLTGLAYNSLAYIAATEKDNDLAFYYMKKAANLCEMNPTVLNNLSYQHLIRGQYEITIEKLTRLIKHDPYKIIVFWNIINSLRMIGKFQEAYIYNHMLIECIEDETTSYHAANLGAFFFQTDPSGDGVFFKEISGKKFYSYCSMALTCYVLDLTEEANMYLEKAQKLDCFSKASAIKFLYYNIECIQKNNVKLIYKLDDIKERLIKLDLFTNVSITVARNETQYINMAKV | failed
LLHGDFELAVPGGPVAAYYAAPAGREQLPIVLVVQEIFGLHEHIKDVCRRLAHDGYLAVSVNLYQRQGDASRYDNIPGLVAELVSKVPDEQVHADLDASLAWAAAHGGDGARVGVTGFCWGGRTTWMYAARNPAVKAGVAWYGRLSSGHGPLIKQVPLDVAGSLHAPVLGLYGGKDESIPLDDVRAMEARLQQGGAPAQASRIVVYPQAGHAFLADYRPSYRAADAQDGWRRMLDWFALYL | not failed
MHLKEKITTIIQGQRTGVLSTVRNDKPHSAFMMFFHEDFVLYVATDRQSKKITDIENNPNVHVLLGREGKKLDEDYIEVEGLASIEEDSTLKNKFWNNSLKRWLLRPEDPNYVLIKINPDTIYYIDGAGTTEPEFLRL | not failed
MSPLHRFSRTEILIGPEKLQRLRESTVAIFGLGGVGSFAAEALCRAGVGRLVLVDFDDICLTNVNRQLHAMDGTVGKAKVQVMAERLRLINPDADIVPHKDFYEAGNSDFLLSGGYNYVVDAIDHITSKLHLIRSCRERELRIISSMGAANKLDPTKIRVADISKTSVCGLARVVRKQLRRQGIKSGVTVVYSTEEPREQAIADAGCRSNCICPNKEEQRFSCEHRRNILGSISFIPSIFGLTMAGVVVNDLAKD | failed
MNIQALLSEKVSQALIAAGAPADCEPQVRQSAKVQFGDYQANGVMAVAKKLGMAPRQLAEQVLSHLDLNGIANKVEIAGPGFINIFLDPAFLADNVNRALQSERLG | not failed
